Results: patent US20260242504A1 (published 2026)

T1: recombinant human 5T4 protein (5T4/His) (UniProt Q13641 32-355)
T1 chain: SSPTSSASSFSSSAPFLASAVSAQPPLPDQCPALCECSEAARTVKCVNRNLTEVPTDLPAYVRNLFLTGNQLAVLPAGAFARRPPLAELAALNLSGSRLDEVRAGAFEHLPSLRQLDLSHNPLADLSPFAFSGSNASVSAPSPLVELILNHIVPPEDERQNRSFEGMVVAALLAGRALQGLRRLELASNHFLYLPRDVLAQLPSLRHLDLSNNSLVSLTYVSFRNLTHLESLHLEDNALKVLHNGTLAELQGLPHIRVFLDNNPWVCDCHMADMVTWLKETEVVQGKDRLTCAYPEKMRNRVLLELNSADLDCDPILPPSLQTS

B1: 53D tribody (other)
chain 1: QVQLVQSGAEVKKPGASVKVSCKASGYSFTSYYMHWVKQSPGQGLEWIGRINPNNGVTLYNQKFKDRVTMTRDTSISTAYMELSRLRSDDTAVYYCARSTMITNYVMDYWGQGTLVTVSSASTKGPSVFPLAPSSKSTSGGTAALGCLVKDYFPEPVTVSWNSGALTSGVHTFPAVLQSSGLYSLSSVVTVPSSSLGTQTYICNVNHKPSNTKVDKKVEPKSCDKTHTGPGGGSPGQVQLVQSGAELKKPGASVKVSCKASGYTFTRYTMHWVRQAPGQCLEWMGYINPSRGYTNYNQKFKDKATLTADKSTSTAYMELRSLRSDDTAVYYCARYYDDHYSLDYWGQGTLVTVSSASGGGGSGGGGSGGGGSAGDIQLTQSPSILSASVGDRVTITCRASSSVSYMNWYQQKPGKAPKRWIYDTSKVASGVPYRFSGSGSGTEYTLTISSMQPEDFATYYCQQWSSNPLTFGCGTKVEIKSG
chain 2: not shown
B2: 53P tribody (other)
chain 1: B1 chain 1
chain 2: not shown
B3: 53G tribody (other)
chain 1: B1 chain 1
chain 2: not shown

Target: T1, recombinant human 5T4 protein (5T4/His)
Assay: ELISA

B1 and B2 are within 1.5-fold of each other in EC50: 790 pM for the first, 840 pM for the second.

Binder B3 has an EC50 of 780 pM.
